B1: Intersectin-1, residues 909 to 971; numbered along this chain, Q15811 (parent)
chain: QGEKVEGLQAQALYPWRAKKDNHLNFNKNDVITVLEQQDMWWFGEVQGQKGWFPKSYVKLISG

The values that follow come from the Human Domainome abundance scans (Beltran et al. 2025).

± gives the uncertainty stated by the source.

This data set covers variants of B1. As to the kind of experiment: abundance fitness (aPCA) (normalised: wild type 0, dead -1); higher = more abundant; growth selection in yeast, the domain comes from the species named. Particulars: Homo sapiens.
Consider QGEKVEGLQAQALYPWRAKKDNHLNFNKNDVITVLEQQDMWPFGEVQGQKGWFPKSYVKLISG [W42P], for which the abundance fitness is -0.658 ± 0.14. Turning to QGEKVEGLQAQALYPWRAKKDNHLNFNKNDVITVLEQQDMWSFGEVQGQKGWFPKSYVKLISG [W42S], the abundance fitness is -0.667 ± 0.12. The result for QGEKVEGLQAQALYPWRAKKDNHLNFNKNDVITVLEQQDMWQFGEVQGQKGWFPKSYVKLISG [W42Q] reads -0.837 ± 0.24; that for QGEKVEGLQAQALYPWRAKKDNHLNFNKNDVITVLEQQDMWMFGEVQGQKGWFPKSYVKLISG [W42M], -0.192 ± 0.13; that for QGEKVEGLQAQALYPWRAKKDNHLNFNKNDVITVLEQQDMWGFGEVQGQKGWFPKSYVKLISG [W42G], -0.734 ± 0.086. For the variant QGEKVEGLQAQALYPWRAKKDNHLNFNKNDVITVLEQQDMWYFGEVQGQKGWFPKSYVKLISG [W42Y], the abundance fitness stood at 0.031 ± 0.15.

In the case of QGEKVEGLQAQALYPWRAKKDNHLNFNKNDVITVLEQQDMWEFGEVQGQKGWFPKSYVKLISG [W42E], the abundance fitness is -0.814 ± 0.12. On to QGEKVEGLQAQALYPWRAKKDNHLNFNKNDVITVLEQQDMWAFGEVQGQKGWFPKSYVKLISG [W42A], for which the abundance fitness is -0.244 ± 0.073.

On to QGEKVEGLQAQALYPWRAKKDNHLNFNKNDVITVLEQQDMWLFGEVQGQKGWFPKSYVKLISG [W42L], for which the abundance fitness was -0.088 ± 0.066. With QGEKVEGLQAQALYPWRAKKDNHLNFNKNDVITVLEQQDMWRFGEVQGQKGWFPKSYVKLISG [W42R], the abundance fitness is -0.767 ± 0.093. As to QGEKVEGLQAQALYPWRAKKDNHLNFNKNDVITVLEQQDMWIFGEVQGQKGWFPKSYVKLISG [W42I], the abundance fitness is -0.605 ± 0.29. QGEKVEGLQAQALYPWRAKKDNHLNFNKNDVITVLEQQDMWDFGEVQGQKGWFPKSYVKLISG [W42D]: the abundance fitness is -0.429 ± 0.25.

With QGEKVEGLQAQALYPWRAKKDNHLNFNKNDVITVLEQQDMWFFGEVQGQKGWFPKSYVKLISG [W42F], the abundance fitness was -0.057 ± 0.17. QGEKVEGLQAQALYPWRAKKDNHLNFNKNDVITVLEQQDMWCFGEVQGQKGWFPKSYVKLISG [W42C]: the abundance fitness is -0.055 ± 0.12. QGEKVEGLQAQALYPWRAKKDNHLNFNKNDVITVLEQQDMWVFGEVQGQKGWFPKSYVKLISG [W42V]: the abundance fitness is -0.411 ± 0.07. Turning to QGEKVEGLQAQALYPWRAKKDNHLNFNKNDVITVLEQQDMWTFGEVQGQKGWFPKSYVKLISG [W42T], the abundance fitness is -0.527 ± 0.085. For QGEKVEGLQAQALYPWRAKKDNHLNFNKNDVITVLEQQDMWKFGEVQGQKGWFPKSYVKLISG [W42K], the abundance fitness is -1.18 ± 0.4. Turning to QGEKVEGLQAQALYPWRAKKDNHLNFNKNDVITVLEQQDMSWFGEVQGQKGWFPKSYVKLISG [W41S], the abundance fitness is -0.274 ± 0.085. The result for QGEKVEGLQAQALYPWRAKKDNHLNFNKNDVITVLEQQDMNWFGEVQGQKGWFPKSYVKLISG [W41N] reads -0.154 ± 0.15; that for QGEKVEGLQAQALYPWRAKKDNHLNFNKNDVITVLEQQDMYWFGEVQGQKGWFPKSYVKLISG [W41Y], -0.053 ± 0.18. The result for QGEKVEGLQAQALYPWRAKKDNHLNFNKNDVITVLEQQDMQWFGEVQGQKGWFPKSYVKLISG [W41Q] reads -0.316 ± 0.15; that for QGEKVEGLQAQALYPWRAKKDNHLNFNKNDVITVLEQQDMPWFGEVQGQKGWFPKSYVKLISG [W41P], -0.94 ± 0.2. To QGEKVEGLQAQALYPWRAKKDNHLNFNKNDVITVLEQQDMTWFGEVQGQKGWFPKSYVKLISG [W41T] belongs -0.659 ± 0.23; to QGEKVEGLQAQALYPWRAKKDNHLNFNKNDVITVLEQQDMVWFGEVQGQKGWFPKSYVKLISG [W41V], -0.319 ± 0.14; to QGEKVEGLQAQALYPWRAKKDNHLNFNKNDVITVLEQQDMRWFGEVQGQKGWFPKSYVKLISG [W41R], -0.6 ± 0.092. In the case of QGEKVEGLQAQALYPWRAKKDNHLNFNKNDVITVLEQQDMWWGGEVQGQKGWFPKSYVKLISG [F43G], the abundance fitness is -0.596 ± 0.16. QGEKVEGLQAQALYPWRAKKDNHLNFNKNDVITVLEQQDMWWPGEVQGQKGWFPKSYVKLISG [F43P]: the abundance fitness was -0.808 ± 0.17. On to QGEKVEGLQAQALYPWRAKKDNHLNFNKNDVITVLEQQDMWWLGEVQGQKGWFPKSYVKLISG [F43L], for which the abundance fitness is -0.019 ± 0.09. As for QGEKVEGLQAQALYPWRAKKDNHLNFNKNDVITVLEQQDMWWCGEVQGQKGWFPKSYVKLISG [F43C], the abundance fitness was -0.563 ± 0.33.

Take QGEKVEGLQAQALYPWRAKKDNHLNFNKNDVITVLEQQDMWWYGEVQGQKGWFPKSYVKLISG [F43Y]: the abundance fitness is -0.119 ± 0.29. For QGEKVEGLQAQALYPWRAKKDNHLNFNKNDVITVLEQQDMWWAGEVQGQKGWFPKSYVKLISG [F43A], the abundance fitness is -0.696 ± 0.13. To QGEKVEGLQAQALYPWRAKKDNHLNFNKNDVITVLEQQDMWWTGEVQGQKGWFPKSYVKLISG [F43T] belongs -0.811 ± 0.47; to QGEKVEGLQAQALYPWRAKKDNHLNFNKNDVITVLEQQDMWWEGEVQGQKGWFPKSYVKLISG [F43E], -0.465 ± 0.12. As to QGEKVEGLQAQALYPWRAKKDNHLNFNKNDVITVLEQQDMWWMGEVQGQKGWFPKSYVKLISG [F43M], the abundance fitness is -0.107 ± 0.17. The result for QGEKVEGLQAQALYPWRAKKDNHLNFNKNDVITVLEQQDMWWNGEVQGQKGWFPKSYVKLISG [F43N] reads -0.427 ± 0.25; that for QGEKVEGLQAQALYPWRAKKDNHLNFNKNDVITVLEQQDMWWKGEVQGQKGWFPKSYVKLISG [F43K], -0.202 ± 0.11; that for QGEKVEGLQAQALYPWRAKKDNHLNFNKNDVITVLEQQDMWWWGEVQGQKGWFPKSYVKLISG [F43W], -0.061 ± 0.14. With QGEKVEGLQAQALYPWRAKKDNHLNFNKNDVITVLEQQDMWWRGEVQGQKGWFPKSYVKLISG [F43R], the abundance fitness is -0.328 ± 0.086. As to QGEKVEGLQAQALYPWRAKKDNHLNFNKNDVITVLEQQDMWWVGEVQGQKGWFPKSYVKLISG [F43V], the abundance fitness is -0.923 ± 0.18. On to QGEKVEGLQAQALYPWRAKKDNHLNFNKNDVITVLEQQDMWWIGEVQGQKGWFPKSYVKLISG [F43I], for which the abundance fitness was -0.663 ± 0.48.

On to QGEKVEGLQAQALYPWRAKKDNHLNFNKNDVITVLEQQDMWWHGEVQGQKGWFPKSYVKLISG [F43H], for which the abundance fitness stood at 0.168 ± 0.47. The result for QGEKVEGLQAQALYPWRAKKDNHLNFNKNDVITVLEQQDMWWSGEVQGQKGWFPKSYVKLISG [F43S] reads -0.546 ± 0.13; that for QGEKVEGLQAQALYPWRAKKDNHLNFNKNDVITVLEQQDMWWDGEVQGQKGWFPKSYVKLISG [F43D], -0.997 ± 0.34.
